Reference: US20110177003A1 (CENTRE NATIONAL DE LA RECHERCHE SCIENTIFIQUE, published 2011)

Experiments:
IFP1.2 = assay: multiple angle light scattering at 785 nm; self-association (homodimer)
[1] = target: the molecule itself; assay: size exclusion chromatography; self-association (homodimer)

Row | apparent molecular weight (IFP1.2) | Molecule | binding result [1]
1 | 80 kDa | IFP1.2 | 
2 |  | IFP1.0 (DrCBD, 321 amino acids, with the D207H mutation) (other, biliverdin chromophore covalently incorporated (residue not stated), Engineered bacteriophytochrome fragment, reported as a homodimer; also called DrCBD/D207H; drCBD/D207H) MSRDPLPFFPPLYLGGPEITTENCEREPIHIPGSIQPHGALLTADGHSGEVLQMSLNAATFLGQEPTVLRGQTLAALLPEQWPALQAALPPGCPDALQYRATLDWPAAGHLSLTVHRVGELLILEFEPTEAWDSTGPHALRNAMFALESAPNLRALAEVATQTVRELTGFDRVMLYKFAPDATGEVIAEARREGLHAFLGHRFPASHIPAQARALYTRHLLRLTADTRAAAVPLDPVLNPQTNAPTPLGGAVLRATSPMHMQYLRNMGVGSSLSVSVVVGGQLWGLIACHHQTPYVLPPDLRTTLEYLGRLLSLQVQVKEA | binds
